Test results taken from patent US20110256180A1 (CHILDREN S HOSPITAL AND RESEARCH CENTER AT OAKLAND, published 2011).
Positions count from the first letter of the chain named. Names may count otherwise. Read-outs that look alike come from different tables or passages of the source.

What was measured:
[1] = target: fHbp ID 22, wild-type (variant group 2, modular group III) (Neisseria meningitidis); assay: ELISA
[2] = target: fHbp ID 77, wild-type (strain 8047, variant group 2, modular group VI) (Neisseria meningitidis); assay: ELISA
[3] = target: fHbp ID 1 on live bacteria of N. meningitidis group B strain H44/76 (Neisseria meningitidis) (UniProt E6MV22); assay: cell-based or functional assay
[4] = target: T1, human complement factor H (human, UniProt P08603 19-1231); assay: ELISA, vs respective wildtype fHbp
T1 construct: also called human fH; fH
T1 sequence (P08603 19-1231 limits assumed): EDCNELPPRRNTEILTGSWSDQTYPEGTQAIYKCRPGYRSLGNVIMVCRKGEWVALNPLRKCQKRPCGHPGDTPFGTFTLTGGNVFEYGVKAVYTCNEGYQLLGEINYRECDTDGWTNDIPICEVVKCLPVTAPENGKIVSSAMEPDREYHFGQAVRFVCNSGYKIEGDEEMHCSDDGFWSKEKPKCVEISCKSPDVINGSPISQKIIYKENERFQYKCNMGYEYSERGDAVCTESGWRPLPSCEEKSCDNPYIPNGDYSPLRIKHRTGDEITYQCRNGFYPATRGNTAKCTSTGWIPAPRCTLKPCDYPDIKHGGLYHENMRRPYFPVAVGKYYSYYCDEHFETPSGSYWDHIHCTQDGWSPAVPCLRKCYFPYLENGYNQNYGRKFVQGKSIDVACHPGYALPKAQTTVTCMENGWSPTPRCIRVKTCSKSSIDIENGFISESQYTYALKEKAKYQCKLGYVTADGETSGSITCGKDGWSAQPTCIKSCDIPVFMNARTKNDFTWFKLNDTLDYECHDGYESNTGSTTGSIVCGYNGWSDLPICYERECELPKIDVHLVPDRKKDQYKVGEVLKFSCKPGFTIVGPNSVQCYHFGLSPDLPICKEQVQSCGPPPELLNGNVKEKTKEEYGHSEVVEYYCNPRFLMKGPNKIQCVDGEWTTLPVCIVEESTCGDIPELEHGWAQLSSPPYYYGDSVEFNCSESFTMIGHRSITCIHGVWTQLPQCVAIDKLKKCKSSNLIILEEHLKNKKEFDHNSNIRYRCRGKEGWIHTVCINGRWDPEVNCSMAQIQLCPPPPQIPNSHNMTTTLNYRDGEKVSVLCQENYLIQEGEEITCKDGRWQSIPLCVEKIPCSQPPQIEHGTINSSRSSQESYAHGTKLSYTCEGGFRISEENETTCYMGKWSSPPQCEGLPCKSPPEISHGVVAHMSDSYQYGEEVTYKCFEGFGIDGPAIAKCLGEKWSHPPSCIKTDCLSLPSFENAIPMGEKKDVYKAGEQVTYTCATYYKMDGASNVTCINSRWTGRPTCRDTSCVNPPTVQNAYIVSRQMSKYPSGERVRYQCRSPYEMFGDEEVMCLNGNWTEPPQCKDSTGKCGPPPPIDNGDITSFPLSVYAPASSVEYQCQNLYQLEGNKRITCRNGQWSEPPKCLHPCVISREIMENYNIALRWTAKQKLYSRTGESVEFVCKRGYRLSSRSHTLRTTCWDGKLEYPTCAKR

[5] = target: T1, human complement factor H; assay: ELISA, vs respective wildtype fHbp; remark: listed apart in the source
[6] = target: T1, human complement factor H; assay: ELISA, fHbp on plate
[7] = target: T1, human complement factor H; assay: ELISA
[8] = target: T2, mouse factor H (native fH of wild-type mice) (mouse, UniProt P06909 19-1234); assay: ELISA, fHbp on plate, mouse serum
T2 construct: also called mouse fH
T2 sequence (P06909 19-1234): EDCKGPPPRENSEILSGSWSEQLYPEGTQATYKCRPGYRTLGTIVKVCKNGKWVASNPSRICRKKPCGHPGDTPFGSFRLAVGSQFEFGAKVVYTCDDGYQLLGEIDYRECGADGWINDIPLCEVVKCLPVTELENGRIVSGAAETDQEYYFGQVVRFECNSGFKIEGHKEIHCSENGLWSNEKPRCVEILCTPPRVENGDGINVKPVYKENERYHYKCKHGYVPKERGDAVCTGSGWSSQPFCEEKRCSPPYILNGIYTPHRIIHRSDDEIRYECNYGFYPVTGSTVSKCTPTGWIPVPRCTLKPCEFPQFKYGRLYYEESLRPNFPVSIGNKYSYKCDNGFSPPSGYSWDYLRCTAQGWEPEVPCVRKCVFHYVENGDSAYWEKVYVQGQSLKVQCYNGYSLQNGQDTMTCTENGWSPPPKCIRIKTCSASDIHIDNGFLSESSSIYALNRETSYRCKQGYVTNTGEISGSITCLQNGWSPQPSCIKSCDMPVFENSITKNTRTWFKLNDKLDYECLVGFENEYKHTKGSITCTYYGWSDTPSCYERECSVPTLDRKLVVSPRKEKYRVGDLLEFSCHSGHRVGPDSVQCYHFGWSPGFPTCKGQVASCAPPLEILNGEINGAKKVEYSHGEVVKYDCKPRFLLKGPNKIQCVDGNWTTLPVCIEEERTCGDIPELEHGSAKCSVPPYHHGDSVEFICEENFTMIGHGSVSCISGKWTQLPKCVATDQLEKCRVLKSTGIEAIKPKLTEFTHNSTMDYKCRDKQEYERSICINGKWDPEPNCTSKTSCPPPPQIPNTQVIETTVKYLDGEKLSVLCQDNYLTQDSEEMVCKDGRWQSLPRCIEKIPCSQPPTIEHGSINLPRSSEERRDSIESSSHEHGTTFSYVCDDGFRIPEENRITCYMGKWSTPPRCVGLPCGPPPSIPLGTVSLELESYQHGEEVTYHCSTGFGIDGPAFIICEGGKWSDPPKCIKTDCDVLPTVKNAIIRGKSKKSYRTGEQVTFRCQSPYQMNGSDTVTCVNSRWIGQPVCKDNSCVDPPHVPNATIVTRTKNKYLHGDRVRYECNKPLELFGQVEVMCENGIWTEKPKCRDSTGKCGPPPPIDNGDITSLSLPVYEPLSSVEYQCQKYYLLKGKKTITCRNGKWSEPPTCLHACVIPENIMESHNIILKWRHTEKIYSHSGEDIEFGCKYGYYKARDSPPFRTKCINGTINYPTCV

Work on “anti-fHbp monoclonal antibody JAR 4 (murine)” yielded a percent less binding than to variant 1 fHbp (ID 1) [1] of 30% and a percent less binding than to variant 1 fHbp (ID 1) [2] of 30%.

Molecule “human IgG1 mouse chimeric anti-fHbp mAb JAR 5 (from UniProt P01857 1-330; P01834 1-107) (antibody)” has a Bactericidal Activity (BC50%), fH-depleted complement, mean [3] of 1.25 µg/mL and a Bactericidal Activity (BC50%), fH-repleted complement, mean [3] of 23.5 µg/mL.

“human IgG1 mouse chimeric anti-fHbp mAb JAR 3 (from UniProt P01857 1-330; P01834 1-107) (antibody)” gave a Bactericidal Activity (BC50%), fH-repleted complement, mean [3] of 15.2 µg/mL.

“human IgG1 mouse chimeric anti-fHbp mAb502 (from UniProt P01857 1-330; P01834 1-107) (antibody)” was tested, and the Bactericidal Activity (BC50%), fH-depleted complement, mean [3] was 1.25 µg/mL and the Bactericidal Activity (BC50%), fH-repleted complement, mean [3] was greater than 100 µg/mL.

B1: fHbp ID 15, wild-type (natural chimera, modular group IV) (other)
chain: CSSGGGGSGGGGVAADIGAGLADALTAPLDHKDKGLKSLTLEDSISQNGTLTLSAQGAERTFKAGDKDNSLNTGKLKNDKISRFDFIRQIEVDGQLITLESGEFQVYKQSHSALTALQTEQVQDSEHSGKMVAKRQFRIGDIVGEHTSFGKLPKDVMATYRGTAFGSDDAGGKLTYTIDFAAKQGHGKIEHLKSPELNVDLAAADIKPDEKHHAVISGSVLYNQAEKGSYSLGIFGGQAQEVAGSAEVETANGIRHIGLAAKQ
notes: Recombinant; also called Pep 15 WT; peptide 15
For B1, the “Fold-Decrease in fH binding” value [4] was 0 fold and the “Fold-Decrease in fH binding” value [5] was 0 fold.

B2: fHbp ID 77 R41S/K113A double mutant (other)
chain: CSSGGGGVAADIGARLADALTAPLDHKDKSLQSLTLDQSVSKNEKLKLAAQGAEKTYGNGDSLNTGKLKNDKVSRFDFIRQIEVDGQLITLESGEFQIYKQDHSAVVALQIEAINNPDKIDSLINQRSFLVSGLGGEHTAFNQLPDGKAEYHGKAFSSDDAGGKLTYTIDFAAKQGHGKIEHLKTPEQNVELAAAELKADEKSHAVILGDTRYGSEEKGTYHLALFGDRAQEIAGSATVKIGEKVHEIGIAGKQ
B2 was tested, and the “fold less binding to fH than wildtype fHbp ID 77” value [6] was roughly 10 fold and the “Fold-Decrease in fH binding” value [4] was greater than 10 fold.

B3: fHbp ID 77 R41S/K113A/D121A triple mutant (other)
chain: B2 chain with D121A
B3 was tested, and the binding result [6] was “no binding” and the “Fold-Decrease in fH binding” value [4] was greater than 50 fold.

B4: fHbp ID 77 R41S/K119A double mutant (other)
chain: B2 chain with A113K, K119A
For B4, the “fold decrease in fH binding” value [6] was roughly 5 fold and the “Fold-Decrease in fH binding” value [4] was greater than 5 fold.

B5: fHbp ID 28 K199A mutant (other)
chain: CSSGGGGSGGGGVAADIGTGLADALTAPLDHKDKGLKSLTLEDSIPQNGTLTLSAQGAEKTFKAGDKDNSLNTGKLKNDKISRFDFVQKIEVDGQTITLASGEFQIYKQNHSAVVALQIEKINNPDKTDSLINQRSFLVSGLGGEHTAFNQLPGGKAEYHGKAFSSDDPNGRLHYSIDFTKKQGYGRIEHLKTLEQNVELAAAELAADEKSHAVILGDTRYGSEEKGTYHLALFGDRAQEIAGSATVKIGEKVHEIGIAGKQ
B5: binds [7].

B6: fHbp ID 1, wild-type recombinant factor H binding protein (strain MC58, variant 1, modular group I) (other)
chain: CSSGGGGVAADIGAGLADALTAPLDHKDKGLQSLTLDQSVRKNEKLKLAAQGAEKTYGNGDSLNTGKLKNDKVSRFDFIRQIEVDGQLITLESGEFQVYKQSHSALTAFQTEQIQDSEHSGKMVAKRQFRIGDIAGEHTSFDKLPEGGRATYRGTAFGSDDAGGKLTYTIDFAAKQGNGKIEHLKSPELNVDLAAADIKPDGKRHAVISGSVLYNQAEKGSYSLGIFGGKAQEVAGSAEVKTVNGIRHIGLAAKQ
notes: also called WT fHbp ID 1; Pep1
B6: no binding (tested: 1:100 dilution of serum) [8].
